Source: article PMC6848165, “C1R Mutations Trigger Constitutive Complement 1 Activation in Periodontal Ehlers-Danlos Syndrome” (Frontiers in Immunology, 2019)

B1: C1r p.S654A (enzymatically inactive proenzyme C1r 'WT') (enzyme, human, UniProt P00736 18-705, looked up)
chain: SIPIPQKLFGEVTSPLFPKPYPNNFETTTVITVPTGYRVKLVFQQFDLEPSEGCFYDYVKISADKKSLGRFCGQLGSPLGNPPGKKEFMSQGNKMLLTFHTDFSNEENGTIMFYKGFLAYYQAVDLDECASRSKSGEEDPQPQCQHLCHNYVGGYFCSCRPGYELQEDTHSCQAECSSELYTEASGYISSLEYPRSYPPDLRCNYSIRVERGLTLHLKFLEPFDIDDHQQVHCPYDQLQIYANGKNIGEFCGKQRPPDLDTSSNAVDLLFFTDESGDSRGWKLRYTTEIIKCPQPKTLDEFTIIQNLQPQYQFRDYFIATCKQGYQLIEGNQVLHSFTAVCQDDGTWHRAMPRCKIKDCGQPRNLPNGDFRYTTTMGVNTYKARIQYYCHEPYYKMQTRAGSRESEQGVYTCTAQGIWKNEQKGEKIPRCLPVCGKPVNPVEQRQRIIGGQKAKMGNFPWQVFTNIHGRGGGALLGDRWILTAAHTLYPKEHEAQSNASLDVFLGHTNVEELMKLGNHPIRRVSVHPDYRQDESYNFEGDIALLELENSVTLGPNLLPICLPDNDTFYDLGLMGYVSGFGVMEEKIAHDLRFVRLPVANPQACENWLRGKNRMDVFSQNMFCAGHPSLKQDACQGDAGGVFAVRDPNTDRWVATGIVSWGIGCSRGYGFYTKVLNYVDWIKKEMEEED
notes: also called C1r WT with additional p.S654A mutation; source: 293-F cells co-transfected with C1s, purified as part of the tetramer as described (19)
B2: C1r p.(D290G) with additional p.S654A mutation (enzyme, human, UniProt P00736 18-705, looked up)
chain: SIPIPQKLFGEVTSPLFPKPYPNNFETTTVITVPTGYRVKLVFQQFDLEPSEGCFYDYVKISADKKSLGRFCGQLGSPLGNPPGKKEFMSQGNKMLLTFHTDFSNEENGTIMFYKGFLAYYQAVDLDECASRSKSGEEDPQPQCQHLCHNYVGGYFCSCRPGYELQEDTHSCQAECSSELYTEASGYISSLEYPRSYPPDLRCNYSIRVERGLTLHLKFLEPFDIDDHQQVHCPYDQLQIYANGKNIGEFCGKQRPPDLDTSSNAVDLLFFTGESGDSRGWKLRYTTEIIKCPQPKTLDEFTIIQNLQPQYQFRDYFIATCKQGYQLIEGNQVLHSFTAVCQDDGTWHRAMPRCKIKDCGQPRNLPNGDFRYTTTMGVNTYKARIQYYCHEPYYKMQTRAGSRESEQGVYTCTAQGIWKNEQKGEKIPRCLPVCGKPVNPVEQRQRIIGGQKAKMGNFPWQVFTNIHGRGGGALLGDRWILTAAHTLYPKEHEAQSNASLDVFLGHTNVEELMKLGNHPIRRVSVHPDYRQDESYNFEGDIALLELENSVTLGPNLLPICLPDNDTFYDLGLMGYVSGFGVMEEKIAHDLRFVRLPVANPQACENWLRGKNRMDVFSQNMFCAGHPSLKQDACQGDAGGVFAVRDPNTDRWVATGIVSWGIGCSRGYGFYTKVLNYVDWIKKEMEEED
notes: also called c.869A>G; source: 293-F cells co-transfected with C1s, purified as part of the tetramer as described (19)

Molecular target: the molecule itself
Experiment: SEC; purified tetramers on Superose 6 Increase 10/300 GL, 50 mM Tris, 150 mM NaCl, pH 7.4, 5 mM EDTA, 0.5 ml/min

Protein	stoichiometry N
B1	2
B2	2
